Results taken from paper PMC6385983, “SNZ3 Encodes a PLP Synthase Involved in Thiamine Synthesis in Saccharomyces cerevisiae” (G3: Genes|Genomes|Genetics, 2018).

Substrate: O=CC(O)COP(=O)(O)O
Assay: purified protein
Format: biochemical, Saccharomyces cerevisiae
Details: 1 mM ribose-5-phosphate, 10 mM ammonium sulfate (20 mM NH4), 50 mM Tris-HCl pH 8.0, 37 °C, 85 µM Snz3p, no glutaminase subunit, racemic D/L substrate

B1: Snz3p (Saccharomyces cerevisiae S288C) (protein)
chain: MSEFKVKTGLAQMLKGGVIMDVVTPEQAIIAERAGACAVMALERIPADMRKSGQVCRMSDPRMIKEIMEAVSIPVMAKVRIGHFVEAQILEELQVDYIDESEVLTPADWTHHIEKHNFKVPFVCGAKDLGEALRRINEGAAMIRTKGEAGTGDVSEAVKHITKIKAEIQQYKENLKTESDFAAKATELRVPVDLLKTTLSEGKLPVVNFAAGGVATPADAALLMQLGCEGVFVGSGIFKSSDPEKLACAIVEATTHYDNPAKLLQVSSDLGDLMGGISIQSINEAGGKNGARLSEIGW
notes: full-length SNZ3 in pTEV5 (NheI/NcoI), His6 tag removed with rTEV, expressed in E. coli BL21-AI; assayed without Sno glutaminase subunit
Km: 290 ± 30 µM | kcat: 0.0007 s⁻¹
